T1: human IL-12 (human, UniProt P29460 23-328; P29459 23-219)
T1 construct: also called Interleukin-12
T1 sequence 1: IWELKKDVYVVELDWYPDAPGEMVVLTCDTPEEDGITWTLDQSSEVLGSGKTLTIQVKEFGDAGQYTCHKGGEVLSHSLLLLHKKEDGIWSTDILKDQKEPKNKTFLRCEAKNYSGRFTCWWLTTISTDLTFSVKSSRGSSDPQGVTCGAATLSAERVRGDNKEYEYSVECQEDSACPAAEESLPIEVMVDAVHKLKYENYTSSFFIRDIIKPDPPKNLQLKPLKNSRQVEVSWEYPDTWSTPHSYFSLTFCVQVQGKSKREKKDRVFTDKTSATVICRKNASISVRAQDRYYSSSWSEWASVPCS
T1 sequence 2: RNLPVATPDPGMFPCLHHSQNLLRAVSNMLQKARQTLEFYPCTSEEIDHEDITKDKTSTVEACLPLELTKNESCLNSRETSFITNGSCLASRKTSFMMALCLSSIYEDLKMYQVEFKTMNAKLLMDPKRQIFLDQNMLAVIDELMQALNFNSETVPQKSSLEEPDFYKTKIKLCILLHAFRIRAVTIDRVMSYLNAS


Molecular target: T1, human IL-12
Test: SPR (Biacore T200), 37 C, pH 7.4; captured antibody, IL-12 analyte
Description: The affinity of anti-IL-12 antibodies binding to human IL-12 at pH 7.4 were determined at 37 degrees C. using Biacore T200 instrument (Cytiva). Anti-human Fc antibody (Cytiva) was immobilized onto all flow cells (FCs) of a CM4 sensor chip using amine coupling kit (Cytiva). All antibodies and analytes were prepared in ACES pH 7.4 containing 20 mM ACES, 150 mM NaCl, 0.05% Tween 20, 0.005% NaN₃. Each antibody was captured onto the sensor surface by anti-human Fc antibody. Antibody capture levels were aimed at 50 response unit (RU). 5 nM of human IL-12 were injected as analyte, followed by dissociation. Sensor surface was regenerated each cycle with 3M MgCl₂. […] Based on the results in Table 9, it is observed that binding kinetics of anti-IL-12 antibody AbI variants towards IL-12 were not drastically changed compared to control (−/−).

Row | Binder | Kd
1 | Anti-IL-12 antibody Ab1 variant L45Q VH/L46Q, Y49A VL (antibody, name in Kabat numbering, V domains shown, Ab1 with VH/VL interface substitutions; Kabat numbering) VH: QVQLVQSGAEVKKPGSSVKVSCKASGGTFSDYYLHWVRQAPGQGQEWMGWIDPENGDTEYAPKFQGRVTITADESTSTAYMELSSLRSEDTAVYYCARNKELRYFDVWGQGTLVTVSS VL: DIVMTQSPLSLPVTPGEPASISCRASQSISINLHWYQQKPGQAPRQLIAFASQSISGVPSRFSGSGSGTDFTLTISSLQPEDFATYYCQQSNSFPLTFGQGTKVEIKR | 2.82 nM
2 | Anti-IL-12 antibody Ab1 variant L45Q VH/Y49A, F98M VL (antibody, name in Kabat numbering, V domains shown, Ab1 with VH/VL interface substitutions; Kabat numbering) VH: QVQLVQSGAEVKKPGSSVKVSCKASGGTFSDYYLHWVRQAPGQGQEWMGWIDPENGDTEYAPKFQGRVTITADESTSTAYMELSSLRSEDTAVYYCARNKELRYFDVWGQGTLVTVSS VL: DIVMTQSPLSLPVTPGEPASISCRASQSISINLHWYQQKPGQAPRLLIAFASQSISGVPSRFSGSGSGTDFTLTISSLQPEDFATYYCQQSNSFPLTMGQGTKVEIKR | 3.27 nM
3 | Anti-IL-12 antibody Ab1 variant V37S VH/L46Q, Y49A VL (antibody, name in Kabat numbering, V domains shown, Ab1 with VH/VL interface substitutions; Kabat numbering) VH: QVQLVQSGAEVKKPGSSVKVSCKASGGTFSDYYLHWSRQAPGQGLEWMGWIDPENGDTEYAPKFQGRVTITADESTSTAYMELSSLRSEDTAVYYCARNKELRYFDVWGQGTLVTVSS VL: DIVMTQSPLSLPVTPGEPASISCRASQSISINLHWYQQKPGQAPRQLIAFASQSISGVPSRFSGSGSGTDFTLTISSLQPEDFATYYCQQSNSFPLTFGQGTKVEIKR | 3.06 nM
4 | Anti-IL-12 antibody Ab1 variant V37S, Y91M VH/L46Q, Y49A VL (antibody, name in Kabat numbering, V domains shown, Ab1 with VH/VL interface substitutions; Kabat numbering) VH: QVQLVQSGAEVKKPGSSVKVSCKASGGTFSDYYLHWSRQAPGQGLEWMGWIDPENGDTEYAPKFQGRVTITADESTSTAYMELSSLRSEDTAVYMCARNKELRYFDVWGQGTLVTVSS VL: DIVMTQSPLSLPVTPGEPASISCRASQSISINLHWYQQKPGQAPRQLIAFASQSISGVPSRFSGSGSGTDFTLTISSLQPEDFATYYCQQSNSFPLTFGQGTKVEIKR | 3.44 nM
5 | Anti-IL-12 antibody Ab1 variant V37S, F100aI VH/L46Q, Y49A VL (antibody, name in Kabat numbering, V domains shown, Ab1 with VH/VL interface substitutions; Kabat numbering) VH: QVQLVQSGAEVKKPGSSVKVSCKASGGTFSDYYLHWSRQAPGQGLEWMGWIDPENGDTEYAPKFQGRVTITADESTSTAYMELSSLRSEDTAVYYCARNKELRYIDVWGQGTLVTVSS VL: DIVMTQSPLSLPVTPGEPASISCRASQSISINLHWYQQKPGQAPRQLIAFASQSISGVPSRFSGSGSGTDFTLTISSLQPEDFATYYCQQSNSFPLTFGQGTKVEIKR | 2.98 nM
6 | Anti-IL-12 antibody Ab1 variant L45Q VH/Y49A, Y87L VL (antibody, name in Kabat numbering, V domains shown, Ab1 with VH/VL interface substitutions; Kabat numbering) VH: QVQLVQSGAEVKKPGSSVKVSCKASGGTFSDYYLHWVRQAPGQGQEWMGWIDPENGDTEYAPKFQGRVTITADESTSTAYMELSSLRSEDTAVYYCARNKELRYFDVWGQGTLVTVSS VL: DIVMTQSPLSLPVTPGEPASISCRASQSISINLHWYQQKPGQAPRLLIAFASQSISGVPSRFSGSGSGTDFTLTISSLQPEDFATYLCQQSNSFPLTFGQGTKVEIKR | 3.61 nM
7 | Anti-IL-12 antibody Ab1 variant V37S, L45Q VH/A43Q, Y49A VL (antibody, name in Kabat numbering, V domains shown, Ab1 with VH/VL interface substitutions; Kabat numbering) VH: QVQLVQSGAEVKKPGSSVKVSCKASGGTFSDYYLHWSRQAPGQGQEWMGWIDPENGDTEYAPKFQGRVTITADESTSTAYMELSSLRSEDTAVYYCARNKELRYFDVWGQGTLVTVSS VL: DIVMTQSPLSLPVTPGEPASISCRASQSISINLHWYQQKPGQQPRLLIAFASQSISGVPSRFSGSGSGTDFTLTISSLQPEDFATYYCQQSNSFPLTFGQGTKVEIKR | 3.13 nM
8 | Anti-IL-12 antibody Ab1 variant V37S VH/Y49A, Y87L VL (antibody, name in Kabat numbering, V domains shown, Ab1 with VH/VL interface substitutions; Kabat numbering) VH: QVQLVQSGAEVKKPGSSVKVSCKASGGTFSDYYLHWSRQAPGQGLEWMGWIDPENGDTEYAPKFQGRVTITADESTSTAYMELSSLRSEDTAVYYCARNKELRYFDVWGQGTLVTVSS VL: DIVMTQSPLSLPVTPGEPASISCRASQSISINLHWYQQKPGQAPRLLIAFASQSISGVPSRFSGSGSGTDFTLTISSLQPEDFATYLCQQSNSFPLTFGQGTKVEIKR | 3.04 nM
9 | Anti-IL-12 antibody Ab1 variant V37S, L45Q VH/Y49A, Y87M VL (antibody, name in Kabat numbering, V domains shown, Ab1 with VH/VL interface substitutions; Kabat numbering) VH: QVQLVQSGAEVKKPGSSVKVSCKASGGTFSDYYLHWSRQAPGQGQEWMGWIDPENGDTEYAPKFQGRVTITADESTSTAYMELSSLRSEDTAVYYCARNKELRYFDVWGQGTLVTVSS VL: DIVMTQSPLSLPVTPGEPASISCRASQSISINLHWYQQKPGQAPRLLIAFASQSISGVPSRFSGSGSGTDFTLTISSLQPEDFATYMCQQSNSFPLTFGQGTKVEIKR | 2.92 nM
10 | Anti-IL-12 antibody Ab1 variant V37S VH/L46Q, Y49A, Y87M VL (antibody, name in Kabat numbering, V domains shown, Ab1 with VH/VL interface substitutions; Kabat numbering) VH: QVQLVQSGAEVKKPGSSVKVSCKASGGTFSDYYLHWSRQAPGQGLEWMGWIDPENGDTEYAPKFQGRVTITADESTSTAYMELSSLRSEDTAVYYCARNKELRYFDVWGQGTLVTVSS VL: DIVMTQSPLSLPVTPGEPASISCRASQSISINLHWYQQKPGQAPRQLIAFASQSISGVPSRFSGSGSGTDFTLTISSLQPEDFATYMCQQSNSFPLTFGQGTKVEIKR | 3.87 nM
11 | Anti-IL-12 antibody Ab1 variant V37S VH/P44A, Y49A VL (antibody, name in Kabat numbering, V domains shown, Ab1 with VH/VL interface substitutions; Kabat numbering) VH: QVQLVQSGAEVKKPGSSVKVSCKASGGTFSDYYLHWSRQAPGQGLEWMGWIDPENGDTEYAPKFQGRVTITADESTSTAYMELSSLRSEDTAVYYCARNKELRYFDVWGQGTLVTVSS VL: DIVMTQSPLSLPVTPGEPASISCRASQSISINLHWYQQKPGQAARLLIAFASQSISGVPSRFSGSGSGTDFTLTISSLQPEDFATYYCQQSNSFPLTFGQGTKVEIKR | 2.96 nM

More lines, in order of falling Kd, values ahead:

Row | Kd | Binder
12 | 2.74 nM | Anti-IL-12 antibody Ab1 variant L45Q VH/P44A, Y49A VL (antibody, name in Kabat numbering, V domains shown, Ab1 with VH/VL interface substitutions; Kabat numbering) VH: QVQLVQSGAEVKKPGSSVKVSCKASGGTFSDYYLHWVRQAPGQGQEWMGWIDPENGDTEYAPKFQGRVTITADESTSTAYMELSSLRSEDTAVYYCARNKELRYFDVWGQGTLVTVSS VL: DIVMTQSPLSLPVTPGEPASISCRASQSISINLHWYQQKPGQAARLLIAFASQSISGVPSRFSGSGSGTDFTLTISSLQPEDFATYYCQQSNSFPLTFGQGTKVEIKR
13 | 1.79 nM | Anti-IL-12 antibody Ab1 variant V37S, Y91M VH/A43Q, Y49A VL (antibody, name in Kabat numbering, V domains shown, Ab1 with VH/VL interface substitutions; Kabat numbering) VH: QVQLVQSGAEVKKPGSSVKVSCKASGGTFSDYYLHWSRQAPGQGLEWMGWIDPENGDTEYAPKFQGRVTITADESTSTAYMELSSLRSEDTAVYMCARNKELRYFDVWGQGTLVTVSS VL: DIVMTQSPLSLPVTPGEPASISCRASQSISINLHWYQQKPGQQPRLLIAFASQSISGVPSRFSGSGSGTDFTLTISSLQPEDFATYYCQQSNSFPLTFGQGTKVEIKR
14 | 1.49 nM | Anti-IL-12 antibody Ab1 variant V37S VH/A43Q, Y49A VL (antibody, name in Kabat numbering, Ab1 with VH/VL interface substitutions; Kabat numbering) heavy: not shown light: DIVMTQSPLSLPVTPGEPASISCRASQSISINLHWYQQKPGQQPRLLIAFASQSISGVPSRFSGSGSGTDFTLTISSLQPEDFATYYCQQSNSFPLTFGQGTKVEIKRTVAAPSVFIFPPSDEQLKSGTASVVCLLNNFYPREAKVQWKVDNALQSGNSQESVTEQDSKDSTYSLSSTLTLSKADYEKHKVYACEVTHQGLSSPVTKSFNRGEC
15 | 1.48 nM | Anti-IL-12 antibody Ab1 variant V37Q VH/- (antibody, name in Kabat numbering, V domains shown, Ab1 with VH/VL interface substitutions; Kabat numbering) VH: QVQLVQSGAEVKKPGSSVKVSCKASGGTFSDYYLHWQRQAPGQGLEWMGWIDPENGDTEYAPKFQGRVTITADESTSTAYMELSSLRSEDTAVYYCARNKELRYFDVWGQGTLVTVSS VL: DIVMTQSPLSLPVTPGEPASISCRASQSISINLHWYQQKPGQAPRLLIYFASQSISGVPSRFSGSGSGTDFTLTISSLQPEDFATYYCQQSNSFPLTFGQGTKVEIKR
16 | 1.12 nM | Anti-IL-12 antibody Ab1 variant V37S, F100aI VH/A43Q, Y49A VL (antibody, name in Kabat numbering, V domains shown, Ab1 with VH/VL interface substitutions; Kabat numbering) VH: QVQLVQSGAEVKKPGSSVKVSCKASGGTFSDYYLHWSRQAPGQGLEWMGWIDPENGDTEYAPKFQGRVTITADESTSTAYMELSSLRSEDTAVYYCARNKELRYIDVWGQGTLVTVSS VL: DIVMTQSPLSLPVTPGEPASISCRASQSISINLHWYQQKPGQQPRLLIAFASQSISGVPSRFSGSGSGTDFTLTISSLQPEDFATYYCQQSNSFPLTFGQGTKVEIKR
17 | 0.982 nM | Anti-IL-12 antibody Ab1 variant V37S VH/Y49A, F98L VL (antibody, name in Kabat numbering, V domains shown, Ab1 with VH/VL interface substitutions; Kabat numbering) VH: QVQLVQSGAEVKKPGSSVKVSCKASGGTFSDYYLHWSRQAPGQGLEWMGWIDPENGDTEYAPKFQGRVTITADESTSTAYMELSSLRSEDTAVYYCARNKELRYFDVWGQGTLVTVSS VL: DIVMTQSPLSLPVTPGEPASISCRASQSISINLHWYQQKPGQAPRLLIAFASQSISGVPSRFSGSGSGTDFTLTISSLQPEDFATYYCQQSNSFPLTLGQGTKVEIKR
18 | 0.828 nM | Anti-IL-12 antibody Ab1 variant V37S, W103M VH/A43Q, Y49A VL (antibody, name in Kabat numbering, Ab1 with VH/VL interface substitutions; Kabat numbering) heavy: not shown light: DIVMTQSPLSLPVTPGEPASISCRASQSISINLHWYQQKPGQQPRLLIAFASQSISGVPSRFSGSGSGTDFTLTISSLQPEDFATYYCQQSNSFPLTFGQGTKVEIKRTVAAPSVFIFPPSDEQLKSGTASVVCLLNNFYPREAKVQWKVDNALQSGNSQESVTEQDSKDSTYSLSSTLTLSKADYEKHKVYACEVTHQGLSSPVTKSFNRGEC
19 | 0.789 nM | Anti-IL-12 antibody Ab1 variant V37S VH/- (antibody, name in Kabat numbering, V domains shown, Ab1 with VH/VL interface substitutions; Kabat numbering) VH: QVQLVQSGAEVKKPGSSVKVSCKASGGTFSDYYLHWSRQAPGQGLEWMGWIDPENGDTEYAPKFQGRVTITADESTSTAYMELSSLRSEDTAVYYCARNKELRYFDVWGQGTLVTVSS VL: DIVMTQSPLSLPVTPGEPASISCRASQSISINLHWYQQKPGQAPRLLIYFASQSISGVPSRFSGSGSGTDFTLTISSLQPEDFATYYCQQSNSFPLTFGQGTKVEIKR
